Measurements: a protein production outcome set (Wang et al. 2014)

Test: label from the status in PepcDB records
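Further: failed if final PepcDB status was selected cloned or expressed and not failed if soluble or beyond.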

Which protein production does the source give for “MKIGVDAGGTLIKIVQEKNGERTYSTRLTTEIEEVIQWLNQQDCNNINLTGGQAAMINEQLNCESRVFVEFDAAAKGLEILLEEQGHFLDDYIFTNVGTGTSLHFSNGKAQKRVGGIGTGGGMIQGLGYLLTGISNYKQLTDTAQNGNRDIIDLKVKHIYKDSEPPISGDLTAANFGNVLHHLDESFTDADKLASVIAVVGEVITTMSITVAREHNTKNVAYIGSSFHNNDLLKDVVKDYTVLRGCEPYYIEHGAFSGALGSIHLLEHHHHHH” here?
The protein production was “failed”.

With “MSVFTKTSVASAATTCLFVLLWSSGAIVSKLGLAHASPFAFLLLRSALALAGLLLIGPLLGLRWPRTRGSILRALGTGCVLLGAYQIFYLLALDTHVTPGVMATVMGVQPILTVVLMERQRSWSRLFGLGLGLGGLIMVVYQGINLGGVSLAGMLFALLALVSMTFGSILQKRITDNPMGTLPLQYLAGFAMCALFAPLQPLHVEWTGSFVGALLWMGLVVSLLATLLLYRLIAKGNLVNVTSLFYLVPAVTAVMDLLIFGNRLAPLSLLGMGLIVVGLLFVFRKPAARLAEA” as the sequence, how does the protein production read?
The protein production was “failed”.

For “FRLIGKHRLPRVDSAAKSDGSALYTQDMKLPGMLVAVVAHAPRLGAAVARVDDAAARAVPGVRAVVRFGGAALRHAGVAVLATNTWAARAGRDALRIEWDEGP”, which protein production is on record?
The protein production was “failed”.

With “MTHATSTETIHYVNEDGDQVFEDGGGKLDFTRTVTIDDVTNEVVEYGEWTPVTDDEFAAVTSPDKDGYTPDTSEVAAQKPDMTDGPDGTVKDVEVTVTYTANPAVATITYVDDDENGKLEHHHHHH” as the sequence, how does the protein production read?
Its protein production is “failed”.

With “MTTRDRTAIFKRYREESVVAKRKRSGNDGIQTIGNQSLSGNHKELAPFLNKGSIQTDSHTVFLPPQWLDWYEELSNSVDSVTHQLAQLESLQQNHLLPGFEERSDEESQISELSRNITLLLQRSQERIRLLAPSSSEPNISSEEKLLRTNAQKYFASKLQELSLSFRRNQKEYLRKLQGQNALVEESTDENPLSTSLELEEYDPGFTQEQVMLLENSDQVASERQREIMKIASSINDLATIVKDIASLVIDQGTLLDRIDYNVEEIEVSTEGAVKELEKAKRSQKKG” as the sequence, how does the protein production read?
The protein production was “failed”.

Which protein production does the source give for “DDDLEVKEENGVWVLNDGNFDNFVADKDTVLLEFYAPWCGHCKQFAPEYEKIASTLKDNDPPIAVAKIDATSASMLASKFDVSGYPTIKILKKGQAVDYDGSRTQEEIVAKVREVSQPDWTPPPEVT” here?
The protein production was “not failed”.

With “MTGQTQGKAVIARERISFWGGFDPQTGRIVDPYSSLRGRDISDCVLILLSSKGSSGTSGMLSLATRAGHAPAAMIQVEMDPVTVMGCLVNNIPLLQASGFDPFEQIQDGDLVRIDGENGTITLTPGQALEHHHHHH” as the sequence, how does the protein production read?
Its protein production is “failed”.

Which protein production does the source give for “MKPNNVNNQNKRHQSRWVITSATAMILTTLTIASQAAAADDTVTTTTNEPTNSQLNTNTQVNATQVNLKADTSTSVSTIKSDQSAVAATSPTTSTGSPSEHSSSVNTNPQQQSANPASQSQATTTSESTPTTDIKHPTQTAPAQTTSASTTEPTTESNTESATDSQAKATTTDNQASKQPSQQAVPASSNSTTTEVNTQSATSSASTDDKIVTNVNQEKLVLKTNQPVVRAISRTASENINDWMPNTLLQQEVLSQLRKQNPDRTWNSAADITKADMLLLTTYYGKDTYIDGKTSYSLEGLQYATNLTTVWLNNNLNAPSGSYYSDVTDISPLANLQKLQVVNIQQNRITDISPLANLKNLTEVDAAYNHISDFSPLKGFKNLKGTFSNQFITLPPAYISADNNIATLAIDCYLPDGSKVQLKPNNGVGETVFYKNGQLYVRWYFNGAGGGNYDSNGHIYYTNMKPQQPGLTGPTFNGTTVIPMDDYYFMTAASDGNNFVVVRPYVLAATAAPITVKYVDALTGESLVTADLTLNGIVGQPYTTQRIDDELPNYDFTNIVGNASGVFTADAQTVTYYYTRKDAGDITIHMVDTNGNLVYEPQILPGKHNLGNAYNLDAPTFDHFKLHQTIGNAAGVFTTDPQSITFVYVRLDAGNITVKYQDKQGHQLKPDKTVSGSQSLGQTYTTEPLGIENYTLMTTPANATGTFTDQEQTVIYVYVRRDAGQIVVKYQDSAGNPLAPDKLLDGKEQLGVAYQTAAISIPNFYLVATPANATGTFSTDTQTVIYQYARSNAGHITVKYQDANGTTLAPDDVLTGDGQLGRPYQTSAKTIENYRLIQTPANATGQFSDQAQTVIYVYTREDAGDITVQYLDENGQQLAADSVLSGQGQLGQPYETSPLNINGYTVKSTQGNTTGTYTVQPQRVVYIYERTAGQPVTAKYQDQDGKSIHPDVVHSGYLGDNYSTEQLVIDGYTFKAVQGDVSGTFGTSAKTVTYVYTESTPTIPDTQGTVTVHYVTKDGIKLNEPTVLSGKTGTTYQTVPLTFTDHELVGQPENATGLFTADNVDVTYVYQATDTTGTDDIIDPEEPEQPTKPIKPTTPETPNEPGTTVTQPDRIKPTQPAVAVKPAATVKPTLKPAAAQASLVKTTSPVTEHSAQLPQTDEQTGKLAVILGLLLSVVTLGFYGKNRQS” here?
The protein production was “failed”.

For “MDDGNENISMEVVEPEDAESDMSSDSGSDAEDDTAEPKAPKEVYLPGTKLADDEELVCDESAYVMLHQASTGAPCLSFDVIPDELGSGRQSFPMTAYIVAGTQASRAHVNNLIVMKMSNLHKTQDNDGDEDEELEDDQDDVTDREELKKPQMTCALVKHQGCVNRVRARRLGNSVYAASWSELGRVNIWDLTQPLQAVENAQLAKQYEQSEARPVFTFGGHQQEGFAIDWSPSADGVLATGDCRRDIHVWTPVEDGTWKVDQRPLAGHSQSVEDLQWSPNERSVLASCSVDKTIRIWDCRASPQKACMLTCEDAHQSDVNVISWNRNEPFIASGGDDGYLHIWDLRQFQSKKPIATFKHHTDHITTVEWSPAEATVLASGGDDDQIALWDLAVEKDIDQAVDPAQNEDVLNKLPPQLLFIHQGQKEIKELHWHPQLPGVLLSTAHSGFNIFRTISV”, which protein production is on record?
The protein production was “failed”.

Which protein production does the source give for “MHGKDPFSDFREFINTMESRVQELGKAYGVEHLAGPQGFAVRYLFENQDKEIFIKDIEKKLSISKSVASNLVKRMEKNGFVELVTSDKDKRYKYVHLTDLGKKKAQDVGHFREAIHGQLLDGISKEDAETAFRVFHQIRKNLEKNKELEHHHHHH” here?
Its protein production is “not failed”.

Which protein production does the source give for “MAPAEPACRCAAAPCSSMIGIDRGSAARLILFRKTFYNIEHTFGRLIVASDLRGLAKYVEPGIRLAVPVDYAGVSMAMTRPIIERKAGNLHLICVPTGGLQVDQLIGSGLVRTVETSAVTLGEAGGAPRFNAAVKDGSIKLMDATCPAIHAGLMAAQKGSPFMPMRGLIGSDILRHRKDWRVIDNPLSDGGDPVVLIPAIKPDVTIFHAPMADRFGNVWIGRRRELAAMAYASATTLVTVERIVEESLLANEITAAGVLPAIYVTEVALAPKGAWPYGLWGEYQTDTQELVRYARAARTAEGFADYMATTQMEPA” here?
The protein production was “failed”.

With “MGKVTIIAGGIKTESRLNGLIQLAANQLANNGTEVKIIEVHKIQAEALVTADFTHPDIHLANSEIESSSGVIIATPIFKAAYSGVLKAYLDLLPLKALKGKVVLPLGLGGSNGHLLALQYALDPVLKELGAEIILKGQFTVDKQIERLGNGLYEIEITAKERLDSALNQFISLLNQNSVEVLEHHHHHH” as the sequence, how does the protein production read?
The protein production was “not failed”.

For “MKPSTEWWRYLAPLAVIAIIALLPVPAGLENHTWLYFAVFTGVIVGLILEPVPGAVVAMVGISIIAILSPWLLFSPEQLAQPGFKFTAKSLSWAVSGFSNSVIWLIFAAFMFGTGYEKTGLGRRIALILVKKMGHRTLFLGYAVMFSELILAPVTPSNSARGAGIIYPIIRNLPPLYQSQPNDSSSRSIGSYIMWMGIVADCVTSAIFLTAMAPNLLLIGLMKSASHATLSWGDWFLGMLPLSILLVLLVPWLAYVLYPPVLKSGDQVPRWAETELQAMGPLCSREKRMLGLMVGALVLWIFGGDYIDAAMVGYSVVALMLLLRIISWDDIVSNKAAWNVFFWLASLITLATGLNNTGFISWFGKLLAGSLSGYSPTMVMVALIVVFYLLRYFFASATAYTSALAPMMIAAALAMPEIPLPVFCLMVGAAIGLGSILTPYATGPSPIYYGSGYLPTADYWRLGAIFGLIFLVLLVITGLLWMPVVLL”, which protein production is on record?
Its protein production is “failed”.

For “MDRGGVLRVAAAALPAYAYFYNVGSIGFWLPLHVRELGWPYTYITLIATWYFVAVTLATPLVGLLSDLTRRPGYILAGGMAVVAATSVAIPHVENPPLLMALRALQGLGLAVGLPIALGSLSLIQGVRRGVASTVIASGLGMSGGAFLSGLMVEYLGFPALFYAAAVPAALSTLVALGWRPPPPPSGSPGLLAALRSMPWEVLVVMAGIAVRNTFASGVFSVVSIIFNKIVGISYTATGVVLAINPAVQASVTTVFERIMRGRALLLYSTGLSGTALAFYLYLTAGSALDLAAAQIALGAFYGATVVSGNTMIIALAPSEIRYTASSLYTFAFNIGWILGTSIAGKVMDAAGVDAWIKLAIAGTLVSGLIPLTLLASPRARRI”, which protein production is on record?
The protein production was “failed”.
